Results as given in patent US6627617.

What was measured:
[1] = tested on: D412A-68 D412A (Adeno-associated virus 2); test: EMSA; conditions: apparent Kd, same as wt; 40 mM KCl, 10 mM HEPES pH 7.5, poly dIdC, 25 C
[2] = tested on: Rep68H6 (wt Rep68) (Adeno-associated virus 2); test: EMSA; conditions: apparent Kd; 40 mM KCl, 10 mM HEPES pH 7.5, poly dIdC, 25 C

Substance: AAV terminal repeat hairpin with double-stranded trs (32P-TR)
- Kd [1]: 3 nM
- Kd [2]: 3 nM
